# Results as given in patent US20230295258A1 (KANAPH THERAPEUTICS, published 2023).
# B1: T1.02 (anti-hu FAP/hu IL-12 mut1, hu IgG1 DANG) (bispecific antibody)
# heavy: QVQLVQSGAEVKKPGASVKVSCKTSRYTFTEYTIHWVRQAPGQRLEWIGGINPNNGIPNYNQKFKGRVTITVDTSASTAYMELSSLRSEDTAVYYCARRRIAYGYDEGHAMDYWGQGTLVTVSSASTKGPSVFPLAPSSKSTSGGTAALGCLVKDYFPEPVTVSWNSGALTSGVHTFPAVLQSSGLYSLSSVVTVPSSSLGTQTYICNVNHKPSNTKVDKKVEPKSCDKTHTCPPCPAPELLGGPSVFLFPPKPKDTLMISRTPEVTCVVVAVSHEDPEVKFNWYVDGVEVHNAKTKPREEQYGSTYRVVSVLTVLHQDWLNGKEYKCKVSNKALPAPIEKTISKAKGQPREPQVYTLPPSRDELTKNQVSLWCLVKGFYPSDIAVEWESNGQPENNYKTTPPVLDSDGSFFLYSKLTVDKSRWQQGNVFSCSVMHEALHNHYTQKSLSLSPGK
# light: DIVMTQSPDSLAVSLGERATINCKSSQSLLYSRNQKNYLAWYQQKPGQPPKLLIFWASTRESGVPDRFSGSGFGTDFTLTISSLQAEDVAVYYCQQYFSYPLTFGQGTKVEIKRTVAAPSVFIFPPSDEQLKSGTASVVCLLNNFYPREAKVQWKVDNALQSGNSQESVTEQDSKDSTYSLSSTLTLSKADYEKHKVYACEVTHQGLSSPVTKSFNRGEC
# chain: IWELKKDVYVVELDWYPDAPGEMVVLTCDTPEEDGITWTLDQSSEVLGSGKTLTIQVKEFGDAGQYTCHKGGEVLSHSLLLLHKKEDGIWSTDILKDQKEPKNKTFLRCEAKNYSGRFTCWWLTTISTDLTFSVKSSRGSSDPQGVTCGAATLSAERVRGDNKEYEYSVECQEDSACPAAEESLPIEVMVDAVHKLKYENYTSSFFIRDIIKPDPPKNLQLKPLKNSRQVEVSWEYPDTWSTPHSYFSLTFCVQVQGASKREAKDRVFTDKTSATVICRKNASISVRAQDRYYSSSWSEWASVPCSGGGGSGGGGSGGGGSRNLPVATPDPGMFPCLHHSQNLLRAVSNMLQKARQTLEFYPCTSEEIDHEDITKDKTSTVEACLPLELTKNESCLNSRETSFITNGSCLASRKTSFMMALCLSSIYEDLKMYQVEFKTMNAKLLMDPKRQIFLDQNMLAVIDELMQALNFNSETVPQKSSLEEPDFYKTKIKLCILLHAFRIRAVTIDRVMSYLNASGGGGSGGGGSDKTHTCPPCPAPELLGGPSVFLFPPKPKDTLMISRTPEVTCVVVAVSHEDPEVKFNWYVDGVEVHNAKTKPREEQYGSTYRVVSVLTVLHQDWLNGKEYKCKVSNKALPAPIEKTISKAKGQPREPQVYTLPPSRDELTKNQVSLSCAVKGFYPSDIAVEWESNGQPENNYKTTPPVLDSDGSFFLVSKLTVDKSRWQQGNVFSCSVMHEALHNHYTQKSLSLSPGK
# B2: T1.03 (anti-hu FAP/hu IL-12 mut2, hu IgG1 DANG) (bispecific antibody)
# heavy: B1 heavy
# light: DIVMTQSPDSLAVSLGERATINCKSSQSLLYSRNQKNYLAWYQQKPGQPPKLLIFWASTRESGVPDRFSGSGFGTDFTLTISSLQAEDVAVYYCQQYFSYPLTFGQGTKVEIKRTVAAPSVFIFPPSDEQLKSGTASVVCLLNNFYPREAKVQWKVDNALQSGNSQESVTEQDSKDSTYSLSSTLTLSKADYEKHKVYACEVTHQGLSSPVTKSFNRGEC
# chain: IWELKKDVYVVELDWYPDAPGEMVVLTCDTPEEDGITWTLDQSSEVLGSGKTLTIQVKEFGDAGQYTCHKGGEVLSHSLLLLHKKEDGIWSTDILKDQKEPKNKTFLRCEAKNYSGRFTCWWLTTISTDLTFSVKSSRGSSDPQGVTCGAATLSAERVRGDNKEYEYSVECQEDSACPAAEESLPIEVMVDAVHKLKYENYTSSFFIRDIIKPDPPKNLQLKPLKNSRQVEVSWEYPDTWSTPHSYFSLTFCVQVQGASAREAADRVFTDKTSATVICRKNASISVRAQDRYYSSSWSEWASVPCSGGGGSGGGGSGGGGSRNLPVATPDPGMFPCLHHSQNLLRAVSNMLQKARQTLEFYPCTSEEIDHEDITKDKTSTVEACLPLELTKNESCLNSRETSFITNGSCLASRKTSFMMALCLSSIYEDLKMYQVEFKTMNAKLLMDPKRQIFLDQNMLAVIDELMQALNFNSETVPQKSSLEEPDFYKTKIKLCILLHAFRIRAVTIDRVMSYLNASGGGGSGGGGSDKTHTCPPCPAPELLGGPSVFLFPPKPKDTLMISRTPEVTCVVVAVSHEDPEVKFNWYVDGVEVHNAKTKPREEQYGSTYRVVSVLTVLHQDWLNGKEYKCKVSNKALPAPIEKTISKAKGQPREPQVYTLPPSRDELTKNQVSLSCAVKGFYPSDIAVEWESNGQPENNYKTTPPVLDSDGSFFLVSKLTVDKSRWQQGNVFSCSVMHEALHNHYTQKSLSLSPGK
# B3: T1.01 (anti-hu FAP/hu IL-12, hu IgG1 DANG) (bispecific antibody)
# heavy: B1 heavy
# light: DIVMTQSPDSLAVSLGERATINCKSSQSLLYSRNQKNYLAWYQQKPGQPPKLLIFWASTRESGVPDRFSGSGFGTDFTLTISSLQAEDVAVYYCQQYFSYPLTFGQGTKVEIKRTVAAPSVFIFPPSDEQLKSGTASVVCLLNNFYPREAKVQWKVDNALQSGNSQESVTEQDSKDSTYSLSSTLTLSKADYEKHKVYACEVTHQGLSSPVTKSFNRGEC
# chain: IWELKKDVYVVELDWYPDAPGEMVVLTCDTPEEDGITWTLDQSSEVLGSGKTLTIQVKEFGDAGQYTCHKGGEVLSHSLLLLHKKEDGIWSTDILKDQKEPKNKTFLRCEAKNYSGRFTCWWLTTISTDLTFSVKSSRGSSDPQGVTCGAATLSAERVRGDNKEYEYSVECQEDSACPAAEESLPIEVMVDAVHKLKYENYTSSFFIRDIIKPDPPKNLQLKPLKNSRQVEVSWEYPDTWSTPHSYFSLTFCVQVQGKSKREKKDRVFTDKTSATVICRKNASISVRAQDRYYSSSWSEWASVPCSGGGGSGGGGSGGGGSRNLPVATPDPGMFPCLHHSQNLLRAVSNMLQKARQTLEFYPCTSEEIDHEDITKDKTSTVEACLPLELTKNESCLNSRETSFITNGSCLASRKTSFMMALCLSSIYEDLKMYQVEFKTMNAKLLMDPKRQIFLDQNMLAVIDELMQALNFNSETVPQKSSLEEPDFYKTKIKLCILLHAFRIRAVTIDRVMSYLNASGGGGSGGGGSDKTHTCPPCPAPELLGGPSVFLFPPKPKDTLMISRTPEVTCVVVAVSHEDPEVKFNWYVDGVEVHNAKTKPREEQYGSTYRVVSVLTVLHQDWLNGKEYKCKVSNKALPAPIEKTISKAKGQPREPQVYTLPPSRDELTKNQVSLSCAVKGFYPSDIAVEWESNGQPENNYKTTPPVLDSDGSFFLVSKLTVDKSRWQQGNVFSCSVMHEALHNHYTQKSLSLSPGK
# Target: IL-12 receptor of human T cells (human, UniProt P42701 24-662; Q99665 24-862)
# Experiment: cell-based or functional assay
# IL-12 receptor of human T cells, sequence (Q99665 24-862, chain 2 of 2, other chains not shown): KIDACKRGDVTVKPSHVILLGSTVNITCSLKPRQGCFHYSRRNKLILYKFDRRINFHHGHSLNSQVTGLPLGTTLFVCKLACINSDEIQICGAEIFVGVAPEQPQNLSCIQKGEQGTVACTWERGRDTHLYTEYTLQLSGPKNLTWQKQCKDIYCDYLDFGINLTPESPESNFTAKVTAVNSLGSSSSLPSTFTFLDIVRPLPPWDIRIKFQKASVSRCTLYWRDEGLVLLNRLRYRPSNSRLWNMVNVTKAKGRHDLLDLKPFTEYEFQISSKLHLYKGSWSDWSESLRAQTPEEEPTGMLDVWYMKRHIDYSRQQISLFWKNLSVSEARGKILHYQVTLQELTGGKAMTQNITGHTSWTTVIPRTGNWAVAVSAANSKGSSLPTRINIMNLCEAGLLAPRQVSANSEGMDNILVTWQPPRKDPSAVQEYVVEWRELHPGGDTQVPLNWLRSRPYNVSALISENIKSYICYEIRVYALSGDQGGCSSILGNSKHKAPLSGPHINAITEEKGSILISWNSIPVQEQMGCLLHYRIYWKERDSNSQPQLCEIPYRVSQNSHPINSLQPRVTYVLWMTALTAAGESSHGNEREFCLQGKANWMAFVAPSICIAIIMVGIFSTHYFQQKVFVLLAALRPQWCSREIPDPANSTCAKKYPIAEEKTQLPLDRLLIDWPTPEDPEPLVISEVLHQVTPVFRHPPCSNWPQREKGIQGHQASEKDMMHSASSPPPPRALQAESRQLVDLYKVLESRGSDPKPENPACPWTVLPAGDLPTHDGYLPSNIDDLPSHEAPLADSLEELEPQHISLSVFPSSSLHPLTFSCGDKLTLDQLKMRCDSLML
change of the p-STAT4 EC50 in human T cells with low molecular weight heparin against without,"half maximal effective concentration (EC50) of p-STAT4 (Tyr693) in activated human T cells, AlphaLISA",Binder
5.5 times,0.0565 nM,B1
4 times,0.147 nM,B2
9.4 times,0.0145 nM,B3
